Our source for the cell death of PC-12 cells, trypan blue analysis 72 hours post treatment (2 nM) values is US20080050776A1.

One test addresses Sortilin co-receptor (UniProt O54861). Briefly: cell-based or functional assay.
Test [1] deals with p75 neurotrophin receptor (p75NTR) (UniProt P07174). Briefly: cell-based or functional assay.
Chain of UniProt P07174 (P07174 30-425): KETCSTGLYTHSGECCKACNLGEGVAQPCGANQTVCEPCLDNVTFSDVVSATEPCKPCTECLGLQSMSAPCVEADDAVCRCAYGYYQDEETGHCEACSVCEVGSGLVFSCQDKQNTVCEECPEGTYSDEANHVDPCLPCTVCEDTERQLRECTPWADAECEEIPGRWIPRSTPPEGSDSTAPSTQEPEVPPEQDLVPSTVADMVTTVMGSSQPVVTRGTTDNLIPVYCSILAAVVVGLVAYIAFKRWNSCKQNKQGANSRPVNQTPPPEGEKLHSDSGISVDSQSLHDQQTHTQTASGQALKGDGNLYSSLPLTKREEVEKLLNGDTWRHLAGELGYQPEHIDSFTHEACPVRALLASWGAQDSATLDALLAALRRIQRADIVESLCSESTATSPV

Chain of UniProt O54861 (O54861 74-825 limits assumed): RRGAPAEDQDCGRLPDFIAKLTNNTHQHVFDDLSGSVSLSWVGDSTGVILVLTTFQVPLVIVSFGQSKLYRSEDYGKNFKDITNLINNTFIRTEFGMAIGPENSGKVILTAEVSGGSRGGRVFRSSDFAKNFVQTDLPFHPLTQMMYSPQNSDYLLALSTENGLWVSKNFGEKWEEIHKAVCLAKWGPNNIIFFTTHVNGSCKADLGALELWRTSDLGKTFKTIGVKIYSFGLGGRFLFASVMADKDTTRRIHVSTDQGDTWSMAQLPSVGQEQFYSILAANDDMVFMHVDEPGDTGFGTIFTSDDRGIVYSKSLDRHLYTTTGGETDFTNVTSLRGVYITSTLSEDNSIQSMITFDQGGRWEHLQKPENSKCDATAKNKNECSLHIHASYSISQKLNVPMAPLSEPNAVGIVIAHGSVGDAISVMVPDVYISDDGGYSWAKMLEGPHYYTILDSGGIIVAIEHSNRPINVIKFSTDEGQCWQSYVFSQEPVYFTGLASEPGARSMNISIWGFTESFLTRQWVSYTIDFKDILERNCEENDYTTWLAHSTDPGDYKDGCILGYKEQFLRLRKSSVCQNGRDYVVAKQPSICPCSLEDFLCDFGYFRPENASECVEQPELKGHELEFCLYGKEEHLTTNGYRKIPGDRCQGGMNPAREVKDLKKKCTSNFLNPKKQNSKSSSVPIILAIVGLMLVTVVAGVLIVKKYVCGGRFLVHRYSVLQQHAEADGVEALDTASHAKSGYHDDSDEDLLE

On to “proNGF123 (mutated mouse proNGF with mutations at all three processing sites) (ligand)”, for which the cell death of PC-12 cells, trypan blue analysis 72 hours post treatment (2 nM) (with Sortilin co-receptor; in test [1]) was > 90% throughout.
